# B1: 4C1, core fragment of S. pombe Mcm4 (domain or fragment)
# chain: ISDEEVEKIQQVSKRDDIYDILSRSLAPSIYEMDDVKKGLLLQLFGGTNKSFHKGASPRYRGDINILMCGDPSTSKSQILKYVHKIAPRGVYTSGKGSSAVGLTAYITRDQDTKQLVLESGALVLSDGGICCIDEFDKMSDATRSILHEVMEQQTVTVAKAGIITTLNARTSILASANPIGSKYNPDLPVTKNIDLPPTLLSRFDLVYLILDRVDETLDRKLANHIVSMYMEDTPEHATDMEVFSVEFLTSYITYARNNINPVISEEAAKELVNAYVGMRKLGEDVRASEKRITATTRQLESMIRLSEAHAKMHLRNVVEVGDVLEAARLIKTAIKDYATD
# Tests used:
# [1] = biological target: the molecule itself; test: SEC; 4C1 at much lower protein concentration: a center fraction of the 12-mer peak injected again on the same column (hexamer peak, ~250 kDa)
# [2] = biological target: the molecule itself; test: SEC; 4C1 at the higher protein concentration (12-mer peak, ~500 kDa); 250 mM NaCl, 50 mM Tris pH8, 1 mM DTT
protein,measurement,setting,value
B1,stoichiometry N,[1],6
same,stoichiometry N,[2],12

# Reference: publication PMC3605359, “Expression, purification and biochemical characterization of Schizosaccharomyces pombe Mcm4, 6 and 7” (BMC Biochemistry, 2013)
